Laboratory results: patent US20250236651A1
One block for each molecule: values may come before it.

How the values were obtained:
[1] = target: native Bovine Collagen Type I (Thermo Fisher) (bovine) (UniProt P02453)
[2] = target: SPIDICOL1 (Spidroin-I/Collagen Type-I fusion protein) (Nephila clavipes; human)
[3] = target: FIB3COL1 (Fibroin-III/Collagen Type-I fusion protein) (Araneus diadematus; human)
[4] = target: SPIDICOL1 (Spidroin-I/Collagen Type-I fusion protein) (Nephila clavipes; human); remark: listed apart in the source
[5] = target: FIB3COL1 (Fibroin-III/Collagen Type-I fusion protein) (Araneus diadematus; human); remark: listed apart in the source

- degradation of the electrospun scaffold (mass over time) [1]: 64 h
- degradation of the electrospun scaffold (mass over time) [2]: 96 h
- degradation of the electrospun scaffold (mass over time) [3]: 100 h
Molecule: collagenase (enzyme)

- hydroxylysine content (amino acid analysis) [4]: 36 fold
- hydroxylysine content (amino acid analysis) [5]: 39 fold
B1: Lysin Hydroxylase 3 (LH3), exogenous human (enzyme)
chain: SDRPRGRDPVNPEKLLVITVATAETEGYLRFLRSAEFFNYTVRTLGLGEEWRGGDVARTVGGGQKVRWLKKEMEKYADREDMIIMFVDSYDVILAGSPTELLKKFVQSGSRLLFSAESFCWPEWGLAEQYPEVGTGKRFLNSGGFIGFATTIHQIVRQWKYKDDDDDQLFYTRLYLDPGLREKLSLNLDHKSRIFQNLNGALDEVVLKFDRNRVRIRNVAYDTLPIVVHGNGPTKLQLNYTYPEHERELGNYVPNGWTPEGGCGFCNQDRRTLPGGQPPPRVFLAVFVEQPTPFLPRFLQRLLLLDYPPDRVTLFLHNNEVFHEPHIADSWPQLQDHFSAVKLVGPEEALSPGEARDMAMDLCRQDPECEFYFSLDADAVLTNLQTLRILIEENRKVIAPMLSRHGKLWSNFWGALSPDEYYARSEDYVELVQRKRVGVWNVPYISQAYVIRGDTLRMELPQRDVFSGSDTDPDMAFCKSFRDKGIFLHLSNQHEFGRLLATSRYDTEHLHPDLWQIFDNPVDWKEQYIHENYSRALEGEGIVEQPCPDVYWFPLLSEQMCDELVAEMEHYGQWSGGRHEDSRLAGGYENVPTVDIHMKQVGYEDQWLQLLRTYVGPMTESLFPGYHTKARAVMNFVVRYRPDEQPSLRPHHDSSTFTLNVALNHKGLDYEGGGCRFLRYDCVISSPRKGWALLHPGRLTHYHEGLPTTWGTRYIMVSFVDP
